Substrate in data set [1]: O=c1[nH]c(=O)c2[nH]c(=O)[nH]c2[nH]1
The experiment in a line: Michaelis-Menten kinetics, wild type Arthrobacter globiformis uricase. It is filed as biochemical. Particulars: other: role: substrate; non-PEGylated; Table 8B; pH 10.5. An excerpt: Non-PEGylated deimmunized Arthrobacter globiformis uricase variants were created by introducing additional amino acid substitutions into the R49S variant Arthrobacter globiformis uricase of SEQ ID NO:6 disclosed in Nyborg et al., PLOS One, 2016, DOI: 10.1371/journal.pone.0167935. For ease of description, the R49S variant Arthrobacter globiformis uricase of SEQ ID NO:6 is referred to as the wild type Arthrobacter globiformis uricase herein, as it serves as the enzyme being mutated to arrive at the variants. The monomeric form of the wild type Arthrobacter globiformis uricase comprises the amino acid sequence of SEQ ID NO:6, where methionine is residue #1. The specified mutations in the Arthrobacter globiformis uricase variants of this example are indexed to methionine as residue #1, as in SEQ ID NO:6. […]
Select Arthrobacter globiformis uricase variants MedU_1B7, MedU_5B8, MedU_1C2, MedU_5C9, MedU_5E6, MedU_5E9, and MedU_IF1 were subject to further characterization by comparing their expression yields, Michaelis-Menten kinetics parameters, and thermostability measured by temperatures at which 50% of normal activity was lost determined by heat stress activity assay, with those of the wild type Arthrobacter globiformis uricase. The expression yields were determined as described above in the “Methods” section. […]

Substrate in data set [2]: O=c1[nH]c(=O)c2[nH]c(=O)[nH]c2[nH]1
The experiment in a line: purified protein, by the assay type. It is filed as biochemical, chimeric pig-baboon. As to conditions: other: role: substrate. The method, then:
Variants 1 (dURC1) and 3 (dURC3) were identified as possible lead candidates. Besides the mutations according to the library design, i.e., the designed mutations of F75Q; K79N; T83Q; E90H; F96H; I100E; Y105D; V119K; F172Y; L260N; and I262T, dURC3 comprised an off-position amino acid mutation K76N. An off-position amino acid mutation is defined as having a non-designed amino acid at a non-target site. […] Specifically, in the dURC1 backbone, the following mutations were tested separately: L154T; K155D; K155N; L157H; L157T; T159E; T159Q; and S162D; and in the dURC3 backbone, the K155N mutation was tested. […] The characteristics, including yield, activity, melting temperature measured by DSF, temperature at which 50% of normal activity was lost after heating measured by heat stress activity assay, Michaelis-Menten kinetics parameters, of variants 1, 2, 3, and 4 (i.e., dURC1, dURC2, dURC3 and dURC4), as well as the wild type chimeric pig-baboon uricase, are summarized in Table 2. The amino acid sequences of dURC1, dURC2, dURC3 and dURC4 are shown as SEQ ID NO: 1, 2, 3, and 4, respectively.
The activity of the purified enzymes was quantified by Michaelis Menten kinetic analysis, using the solution phase microplate assay across a range of substrate concentrations (FIG. 4B).

Substrate in data set [3]: O=c1[nH]c(=O)c2[nH]c(=O)[nH]c2[nH]1
In words: purified protein, by the assay type. It is filed as biochemical, chimeric pig-baboon. As to conditions: other: role: substrate. This is another data set of the same source.

Where [4] appears, read: non-PEGylated, pH 10.5, 25° C., Table 2.
[5] abbreviates: purified enzyme, non-linear regression, Table 3, pH 10.5, 25.0 °C.

This passage reports Km and kcat results from patent publication US20260308536A1, “NOVEL URICASE VARIANTS AND METHODS OF USE THEREOF” (priority 2023, published 2026).

B1: Arthrobacter globiformis uricase, wild type (R49S variant, referred to as wild type), SEQ ID NO: 6 (Arthrobacter globiformis; R49S) (protein)
chain: MTATAETSTGTKVVLGQNQYGKAEVRLVKVTRNTARHEIQDLNVTSQLSGDFEAAHTAGDNAHVVATDTQKNTVYAFARDGFATTEEFLLRLGKHFTEGFDWVTGGRWAAQQFFWDRINDHDHAFSRNKSEVRTAVLEISGSEQAIVAGIEGLTVLKSTGSEFHGFPRDKYTTLQETTDRILATDVSARWRYNTVEVDFDAVYASVRGLLLKAFAETHSLALQQTMYEMGRAVIETHPEIDEIKMSLPNKHHFLVDLQPFGQDNPNEVFYAADRPYGLIEATIQREGSRAD
notes: His6 (C); made in house; host or cells: E. coli
What is called Km is the substrate concentration at which the rate is half of its maximum. A word on the kcat: it is the number of substrate molecules converted per active site and unit of time at saturation. Turning to B1, in data set [1], the Michaelis-Menten constant (Km) was 270 ± 80 µM and the catalytic constant (kcat) stood at 2.3 ± 0.2 s⁻¹.

B2: chimeric pig-baboon uricase variant 1 (dURC1), F75Q/K79E/T83Q/E90H/F96H/I100H/Y105D/V119K/Y127H/F172Y/L260N, SEQ ID NO: 1 (Sus scrofa; … (protein)
chain: TYKKNDEVEFVRTGYGKDMIKVLHIQRDGKYHSIKEVATTVQLTLSSKKDYLHGDNSDVIPTDTIKNTVNVLAKQKGIESIEQFAVTICHHFLSSHKHVHRAQVDVEEVPWKRFEKNGKKHVHAFIHTPTGTHFCEVEQIRNGPPVIHSGIKDLKVLKTTQSGFEGFIKDQYTTLPEVKDRCFATQVYCKWRYHQGRDVDFEATWDTVRSIVLQKFAGPYDKGEYSPSVQKTLYDIQVLTLGQVPEIEDMEISLPNIHYNNIDMSKMGLINKEEVLLPLDNPYGKITGTVKRKLSSRL
notes: purified
With B2, the values for the Michaelis constant (Km) in data set [2] (setting [4]) and in data set [2] (setting [5]) were 678 µM and 700 ± 100 µM, respectively.

B3: chimeric pig-baboon uricase variant 3 (dURC3), F75Q/K76N/K79N/T83Q/E90H/F96H/I100E/Y105D/V119K/F172Y/L260N/I262T, SEQ ID NO: 3 (Sus scrofa; … (protein)
chain: TYKKNDEVEFVRTGYGKDMIKVLHIQRDGKYHSIKEVATTVQLTLSSKKDYLHGDNSDVIPTDTIKNTVNVLAKQNGINSIEQFAVTICHHFLSSHKHVERAQVDVEEVPWKRFEKNGKKHVHAFIYTPTGTHFCEVEQIRNGPPVIHSGIKDLKVLKTTQSGFEGFIKDQYTTLPEVKDRCFATQVYCKWRYHQGRDVDFEATWDTVRSIVLQKFAGPYDKGEYSPSVQKTLYDIQVLTLGQVPEIEDMEISLPNIHYNNTDMSKMGLINKEEVLLPLDNPYGKITGTVKRKLSSRL
notes: purified
Regarding B3, the Michaelis constant (Km) in data set [3] (setting [4]) worked out at 595 µM; in data set [3] (setting [5]), 600 ± 70 µM.

B4: chimeric pig-baboon uricase variant 2 (dURC2), F75Q/K79E/T83Q/E90H/F96H/I100H/Y105D/V119K/Y127H/K155N/F172Y/L260N, SEQ ID NO: 2 (Sus scrofa; … (protein)
chain: TYKKNDEVEFVRTGYGKDMIKVLHIQRDGKYHSIKEVATTVQLTLSSKKDYLHGDNSDVIPTDTIKNTVNVLAKQKGIESIEQFAVTICHHFLSSHKHVHRAQVDVEEVPWKRFEKNGKKHVHAFIHTPTGTHFCEVEQIRNGPPVIHSGIKDLNVLKTTQSGFEGFIKDQYTTLPEVKDRCFATQVYCKWRYHQGRDVDFEATWDTVRSIVLQKFAGPYDKGEYSPSVQKTLYDIQVLTLGQVPEIEDMEISLPNIHYNNIDMSKMGLINKEEVLLPLDNPYGKITGTVKRKLSSRL
notes: purified
With B4, the Km was 467 µM in data set [2] (setting [4]) and 470 ± 60 µM in data set [2] (setting [5]).

B5: chimeric pig-baboon uricase variant 4 (dURC4), F75Q/K76N/K79N/T83Q/E90H/F96H/I100E/Y105D/V119K/K155N/F172Y/L260N/I262T, SEQ ID NO: 4 (Sus scrofa; … (protein)
chain: TYKKNDEVEFVRTGYGKDMIKVLHIQRDGKYHSIKEVATTVQLTLSSKKDYLHGDNSDVIPTDTIKNTVNVLAKQNGINSIEQFAVTICHHFLSSHKHVERAQVDVEEVPWKRFEKNGKKHVHAFIYTPTGTHFCEVEQIRNGPPVIHSGIKDLNVLKTTQSGFEGFIKDQYTTLPEVKDRCFATQVYCKWRYHQGRDVDFEATWDTVRSIVLQKFAGPYDKGEYSPSVQKTLYDIQVLTLGQVPEIEDMEISLPNIHYNNTDMSKMGLINKEEVLLPLDNPYGKITGTVKRKLSSRL
notes: purified
On to B5, for which the values for the Km in data set [2] (setting [4]) and in data set [2] (setting [5]) were 347 µM and 350 ± 20 µM, respectively.
